These are literature values, as cited in PMC8688582.

For this data set, the target named is CD25 (Homo sapiens) (UniProt P01589). In words: ITC.
Sequence of UniProt P01589 (P01589 22-240): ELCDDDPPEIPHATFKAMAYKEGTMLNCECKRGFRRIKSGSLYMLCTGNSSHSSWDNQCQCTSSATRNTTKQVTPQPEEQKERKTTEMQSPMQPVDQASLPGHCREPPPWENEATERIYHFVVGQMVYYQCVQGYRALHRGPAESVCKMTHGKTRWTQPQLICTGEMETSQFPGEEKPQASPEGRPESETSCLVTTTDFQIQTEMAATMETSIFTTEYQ

Usually Kd stands for the equilibrium constant for the complex coming apart. For IL-2 (from UniProt P60568), the Kd was 10 nM.
